Where two headings read alike, the source gives them in different places.
How the values were obtained:
Assay in all cases: cryo-EM structure
[1] = biological target: T1, Slh1 helicase subunit of the ribosome quality control trigger complex RQT (wild type) (yeast, UniProt P53327 1-1967)
[2] = biological target: Slh1-K316R, ATPase-deficient Slh1 subunit of K316R-RQT (yeast, UniProt P53327 1-1967, K316R)
[3] = biological target: T1, Slh1 helicase subunit of the ribosome …; remark: listed apart in the source

T1 sequence (P53327 whole entry, one chain of several): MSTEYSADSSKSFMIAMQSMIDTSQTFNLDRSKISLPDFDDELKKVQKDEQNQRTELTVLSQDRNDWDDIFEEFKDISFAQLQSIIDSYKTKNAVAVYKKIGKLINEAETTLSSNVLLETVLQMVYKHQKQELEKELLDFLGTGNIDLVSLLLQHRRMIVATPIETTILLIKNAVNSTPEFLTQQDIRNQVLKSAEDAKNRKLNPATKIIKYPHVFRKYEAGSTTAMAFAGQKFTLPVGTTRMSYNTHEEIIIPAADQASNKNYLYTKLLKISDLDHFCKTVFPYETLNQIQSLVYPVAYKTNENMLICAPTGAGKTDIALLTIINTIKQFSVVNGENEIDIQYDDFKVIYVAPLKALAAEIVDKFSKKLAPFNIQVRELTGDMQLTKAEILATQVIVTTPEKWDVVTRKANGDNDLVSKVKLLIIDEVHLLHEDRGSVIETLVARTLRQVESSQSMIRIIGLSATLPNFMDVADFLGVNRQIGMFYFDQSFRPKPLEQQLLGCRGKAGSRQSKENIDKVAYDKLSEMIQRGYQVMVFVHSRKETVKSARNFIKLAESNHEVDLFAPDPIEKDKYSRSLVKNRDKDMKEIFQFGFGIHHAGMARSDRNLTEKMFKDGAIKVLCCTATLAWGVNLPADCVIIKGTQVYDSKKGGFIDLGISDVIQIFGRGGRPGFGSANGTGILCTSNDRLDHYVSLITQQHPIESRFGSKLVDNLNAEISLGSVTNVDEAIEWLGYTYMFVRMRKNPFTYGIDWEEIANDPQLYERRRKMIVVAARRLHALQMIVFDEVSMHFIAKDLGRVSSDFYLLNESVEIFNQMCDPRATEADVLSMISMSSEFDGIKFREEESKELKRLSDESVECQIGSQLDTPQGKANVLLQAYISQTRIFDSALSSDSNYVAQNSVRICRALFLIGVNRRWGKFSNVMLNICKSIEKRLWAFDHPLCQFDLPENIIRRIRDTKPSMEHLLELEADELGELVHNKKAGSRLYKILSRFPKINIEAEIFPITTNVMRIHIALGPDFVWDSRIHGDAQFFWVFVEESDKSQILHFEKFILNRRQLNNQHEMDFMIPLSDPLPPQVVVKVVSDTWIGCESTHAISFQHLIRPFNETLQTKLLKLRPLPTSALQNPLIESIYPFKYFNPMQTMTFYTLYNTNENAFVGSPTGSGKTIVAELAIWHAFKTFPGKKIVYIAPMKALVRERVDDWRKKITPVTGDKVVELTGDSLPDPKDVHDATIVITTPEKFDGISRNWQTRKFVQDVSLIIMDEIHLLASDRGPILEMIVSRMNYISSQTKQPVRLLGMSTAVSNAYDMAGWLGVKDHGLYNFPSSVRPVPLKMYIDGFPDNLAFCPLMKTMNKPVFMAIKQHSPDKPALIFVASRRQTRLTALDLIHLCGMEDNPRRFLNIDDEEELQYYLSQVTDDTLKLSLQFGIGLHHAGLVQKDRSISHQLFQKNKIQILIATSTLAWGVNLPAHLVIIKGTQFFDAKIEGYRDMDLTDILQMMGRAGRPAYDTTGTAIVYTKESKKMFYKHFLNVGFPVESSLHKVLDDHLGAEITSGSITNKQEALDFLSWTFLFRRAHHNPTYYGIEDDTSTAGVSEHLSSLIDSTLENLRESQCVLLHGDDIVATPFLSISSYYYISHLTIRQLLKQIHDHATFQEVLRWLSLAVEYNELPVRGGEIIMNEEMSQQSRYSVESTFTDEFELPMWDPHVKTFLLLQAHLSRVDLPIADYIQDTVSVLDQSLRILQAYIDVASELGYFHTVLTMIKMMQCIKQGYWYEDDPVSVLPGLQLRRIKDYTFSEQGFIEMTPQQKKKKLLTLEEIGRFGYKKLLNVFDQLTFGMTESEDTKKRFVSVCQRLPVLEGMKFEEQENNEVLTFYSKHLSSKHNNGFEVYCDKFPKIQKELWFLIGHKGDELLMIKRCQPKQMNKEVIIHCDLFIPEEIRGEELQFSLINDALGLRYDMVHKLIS
Slh1-K316R, ATPase-deficient Slh1 subunit of K316R-RQT, sequence (P53327 whole entry K316R): as the sequence (P53327 whole entry, one chain of several) above, with K316R counted along it

| binding result [1] | binding result [2] | binding result [3] | Binder |
| --- | --- | --- | --- |
| binds | – | – | RACK1 (Asc1) of the 40S head (natural protein, UniProt P38011 1-319, looked up) MASNEVLVLRGTLEGHNGWVTSLATSAGQPNLLLSASRDKTLISWKLTGDDQKFGVPVRSFKGHSHIVQDCTLTADGAYALSASWDKTLRLWDVATGETYQRFVGHKSDVMSVDIDKKASMIISGSRDKTIKVWTIKGQCLATLLGHNDWVSQVRVVPNEKADDDSVTIISAGNDKMVKAWNLNQFQIEADFIGHNSNINTLTASPDGTLIASAGKDGEIMLWNLAAKKAMYTLSAQDEVFSLAFSPNRYWLAAATATGIKVFSLDPQYLVDDLRPEFAGYSKAAEPHAVSLAWSADGQTLFAGYTDNVIRVWQVMTAN |
| – | binds | binds | Cue3, ubiquitin-binding CUE domain containing subunit of RQT (natural protein, yeast, UniProt P53137 1-624, looked up) MLSRYNRVIEINGGNADISLPIVKFPPFKLRAQLIEKDPVVWLHLIETYVTYFEYLMQGANVELLDESTLDHLRLFLRTYLHEIADEEGKLLSLGINHDVSEQLYLLKGWIFSLIKKCGLLHLQIFGDSLWNLIKVYVRRNPDSIRGLIDGSLKPRINTQRVQLDKSYQVQQHLKQLIESGKFKRIDLRCVEDLLSAKSMQPNKFAENFFTANWIEILEALWAKGQGRGHKEARELIIISLFSVSADRLLKITKELGISNFETLALYPLLGTMLINEGVHKRLPDLKSKLLFLNLGGLSMDEGDHMSYPTSSGTEVNEEQLSALMELFPQFSKYQLSQTLLAYDNNIELVTNKIFEDPTIIEAFSREPAEEEVEPVSDGDNASFTEELSILDRGDSSKNKELDKKIISEGVPDELRNKTLTRALKLLYEADEDERDDTYDEADVNRSDPSKRIGLQEDEESYDTKDDSNEVRQDHNYHIVEAYLWNLLKEDPKLFERSKRGTKVRKTMKEMTSWSDEKIEGWCRMLERSPTRARLLEKKFMFKGNSKTGKTSYVHNRDSQNDGNVVKEQAKQKKSENIKKHEPQSTEQKKRQHAKNEKRKGARANHNRKKGHDKKLARAGNNAI |
| binds | – | – | ribosomal protein uS3 of the 40S subunit (natural protein, UniProt P05750 1-240, looked up) MVALISKKRKLVADGVFYAELNEFFTRELAEEGYSGVEVRVTPTKTEVIIRATRTQDVLGENGRRINELTLLVQKRFKYAPGTIVLYAERVQDRGLSAVAQAESMKFKLLNGLAIRRAAYGVVRYVMESGAKGCEVVVSGKLRAARAKAMKFADGFLIHSGQPVNDFIDTATRHVLMRQGVLGIKVKIMRDPAKSRTGPKALPDAVTIIEPKEEEPILAPSVKDYRPAEETEAQAEPVEA |
| binds | – | – | ribosomal protein uS5 of the 40S subunit (natural protein, UniProt P25443 1-254, looked up) MSAPEAQQQKRGGFGGRNRGRPNRRGPRNTEEKGWVPVTKLGRLVKAGKITTIEEIFLHSLPVKEFQIIDTLLPGLQDEVMNIKPVQKQTRAGQRTRFKAVVVVGDSNGHVGLGIKTAKEVAGAIRAGIIIAKLSVIPIRRGYWGTNLGQPHSLATKTTGKCGSVTVRLIPAPRGSGIVASPAVKKLLQLAGVEDVYTQSNGKTRTLENTLKAAFVAIGNTYGFLTPNLWAEQPLPVSPLDIYSDEASAQKKRF |
| – | binds | binds | Rqt4, zinc-finger containing subunit of RQT (natural protein, yeast, UniProt P36119 1-530, looked up) MTRKQAIDYAIKQVPQILPLEESDVKALCEQVLSTSSDDPEQIASKFLEFLGHEDLSFEFVMKFNELLNQNDKKEEKKTKNVHLEHTAPTSWKNESKQPTNNYINKKGDEKPKKLKDEKKSSTTRPTVQPSNQSTQSNPIKEKKEHRSKGKLQSLQEIDEAIKMLELRDSGSSKNCNCQGTRHPVFDIAPNCLHCGKVVCVIEGLNKGKCGHCHEQLISDNERTQMVEILNQEKNELNGSSSSLSNASNGANVPKKKTKTYKITSGMGKNLFAEQDKLFDFIERKRERERKRNEVLKLQEEKEESEAKERQASEHDHKAEENPELLAAQERLDRLLYFQDTSAERTKIIDNASDFDMNQEVGLWGSARERALALKKQQRNLRKWEKVEKERNGRREKYVVSMNIGSNGKVTMTEVPKDTENVIAGSDDDISDISDEEDISDLKHIHALKSEINTTKSLENLHLQSKAWDYERDKKQFDRPTYVKKNSDTAQQNRKTEEKAHDMQAYDLKSRVQVDQNADASVEQNILAVL |

— article doi:10.1101/2022.04.19.488791 (bioRxiv, 2022)
